Data published in US20240058465A1 (SUTRO BIOPHARMA, published 2024).

molecular target: T1, human ROR1 extracellular domain (human, UniProt Q01973 30-406); assay: SPR (Biacore T200), IgG captured by anti-human Fc, ROR1 ECD as analyte, 1:1 Langmuir fit
T1 construct: Bought recombinant protein (Acro Biosystems); also called ROR1 ECD; hROR1
Procedure: (§1) The data was fit with the Biacore™ T200 Evaluation software, using a 1-1 Langmuir binding model. KD (affinity, nM) was determined as a ratio of the kinetic rate constants calculated from the fits of the association and dissociation phases.

Row | Kd [nM] | koff [s⁻¹] | kon [M⁻¹ s⁻¹] | Binder
1 | 1.14 | 0.000645 | 566000 | 1987-C05 HC with hUCHT1-LC3 light chain (antibody, V domains shown, IgG with an anti-CD3 light chain; also called 1987-C05 HC w/hUCHT1 LC3) VH: EVQLVESGGGLVQPGGSLRLSCAASGFNISDYDIHWVRQAPGKGLEWVGGIDPDDGSTDYADSVKGRFTISADTSKNTAYLQMNSLRAEDTAVYYCARDYGVFDYWGQGTLVTVSS VL: DIQMTQSPSTLSASVGDRVTITCRASQDIRNYLNWYQQKPGKAPKLLIYYTSRLHSGVPSRFSGSGSGTEYTLTISSLQPDDFATYYCQQGNTLPWTFGGGTKVEIK

molecular target: T2, human ROR1 (hROR1) (human, UniProt Q01973 30-937); assay: cell-based or functional assay

Row | Binder | cell killing on ROR1 positive NTERA-2 cells, EC50 [nM] | cell killing on ROR1 positive NTERA-2 cells, Span [%]
2 | Conjugate 6 (2188-D04-Y180/F404-LP10) (antibody, human IgG1, kappa, pAMF at HC-Y180 and HC-F404 (the * of the entry), conjugated to LP10 (DBCO-PEG4-GGFG-aminol-Dxd)) heavy: MEVQLVESGGGLVQPGGSLRLSCAASGFNISDYDIHWVRQAPGKGLEWVGGIDPADGSTDYADSVKGRFTISADTSKNTAYLQMNSLRAEDTAVYYCARDYGVYDYWGQGTLVTVSSASTKGPSVFPLAPSSKSTSGGTAALGCLVKDYFPEPVTVSWNSGALTSGVHTFPAVLQSSGLSLSSVVTVPSSSLGTQTYICNVNHKPSNTKVDKKVEPKSCDKTHTCPPCPAPELLGGPSVFLFPPKPKDTLMISRTPEVTCVVVDVSHEDPEVKFNWYVDGVEVHNAKTKPREEQYNSTYRVVSVLTVLHQDWLNGKEYKCKVSNKALPAPIEKTISKAKGQPREPQVYTLPPSREEMTKNQVSLTCLVKGFYPSDIAVEWESNGQPENNYKTTPPVLDSDGSFLYSKLTVDKSRWQQGNVFSCSVMHEALHNHYTQKSLSLSPGK light: not shown | 0.08 | 53
3 | Conjugate 7 (2188-D04-Y180/F404/K42/E161-LP10) (antibody, human IgG1, kappa, pAMF in place of LC-K42 and LC-E161 (Kabat numbering), conjugated to LP10; pAMF at HC-Y180 and HC-F404 (the * of the entry), conjugated to LP10) heavy: MEVQLVESGGGLVQPGGSLRLSCAASGFNISDYDIHWVRQAPGKGLEWVGGIDPADGSTDYADSVKGRFTISADTSKNTAYLQMNSLRAEDTAVYYCARDYGVYDYWGQGTLVTVSSASTKGPSVFPLAPSSKSTSGGTAALGCLVKDYFPEPVTVSWNSGALTSGVHTFPAVLQSSGLSLSSVVTVPSSSLGTQTYICNVNHKPSNTKVDKKVEPKSCDKTHTCPPCPAPELLGGPSVFLFPPKPKDTLMISRTPEVTCVVVDVSHEDPEVKFNWYVDGVEVHNAKTKPREEQYNSTYRVVSVLTVLHQDWLNGKEYKCKVSNKALPAPIEKTISKAKGQPREPQVYTLPPSREEMTKNQVSLTCLVKGFYPSDIAVEWESNGQPENNYKTTPPVLDSDGSFLYSKLTVDKSRWQQGNVFSCSVMHEALHNHYTQKSLSLSPGK light: not shown | 0.048 | 94

molecular target: ROR1 (recombinant protein coated on the ELISA plate, Example 11) (UniProt Q01973 30-403, limits assumed); assay: ELISA: ROR1 coated on the plate, antibody titrated 3-fold from 5 ug/mL, HRP anti-human Fc, chemiluminescence (ELISA RLU)
From the text: The anti-ROR1 lead antibodies were discovered from a Fab ribosome display library that contained CDR H1, H2, and H3 diversity and utilized a constant LC (trastuzumab LC). In this example, the HCs of the lead antibodies were co-expressed with trastuzumab LC or different LCs derived from anti-CD3 antibodies: hOKT3-LC1, hSP34-LC3, hUCHT1-LC3 to determine if the anti-ROR1 HC leads would retain binding to ROR1 when assembled with anti-CD3 LCs. […] The antibodies were then purified and tested for ROR1 binding by ELISA. The ELISA assay was carried out as follows. Briefly, 2 μg/mL of ROR1 was coated to a 384-well polystyrene plate for 1 hr at 30° C. in 0.1 M bicarbonate pH8.9 buffer before it was washed and blocked with 2% BSA in PBST (PBS, 0.1% Tween20) for 1 hr. Antibody variants were diluted to 5 μg/mL and further serially diluted 3-fold before 30 μL was applied to the ELISA plates for binding ([…] Antibody binding was detected via HRP-conjugated anti-human Fc antibodies (Jackson Immunoresearch) and detection with SuperSignal ELISA Pico Chemiluminescent Substrate (Pierce).

Row | EC50 (read off the curve) [µg/mL] | Binder
4 | ~0.02 | 1944-A07 HC with Trastuzumab LC (antibody, IgG1, V domains shown, Screening constructs are described as His- and FLAG-tagged IgG1; also called SRP1944-A07) VH: EVQLVESGGGLVQPGGSLRLSCAASGFNITGYYIHWVRQAPGKGLEWVGYISPNSGSTYYADSVKGRFTISADTSKNTAYLQMNSLRAEDTAVYYCARDSRRYVRPFDYWGQGTLVTVSS VL: not shown
5 | ~0.02 | 1944-A07 HC co-expressed with hUCHT1-LC3 light chain (antibody, V domains shown, Only variable domains are tied to this pairing) VH: EVQLVESGGGLVQPGGSLRLSCAASGFNITGYYIHWVRQAPGKGLEWVGYISPNSGSTYYADSVKGRFTISADTSKNTAYLQMNSLRAEDTAVYYCARDSRRYVRPFDYWGQGTLVTVSS VL: DIQMTQSPSTLSASVGDRVTITCRASQDIRNYLNWYQQKPGKAPKLLIYYTSRLHSGVPSRFSGSGSGTEYTLTISSLQPDDFATYYCQQGNTLPWTFGGGTKVEIK
6 | ~0.05 | 1944-A07 HC co-expressed with hSP34-LC3 light chain (antibody, IgG1, V domains shown, Only variable domains are tied to this pairing) VH: EVQLVESGGGLVQPGGSLRLSCAASGFNITGYYIHWVRQAPGKGLEWVGYISPNSGSTYYADSVKGRFTISADTSKNTAYLQMNSLRAEDTAVYYCARDSRRYVRPFDYWGQGTLVTVSS VL: QTVVTQEPSLTVSPGGTVTLTCGSSTGAVTSGYYPNWFQQKPGQAPRGLIGGTKFLAPGTPARFSGSLLGGKAALTLSGVQPEDEAEYYCALWYSNRWVFGGGTQLTVTG

molecular target: T2, human ROR1 (hROR1); assay: flow cytometry, HCT116-hROR1 cells; NSB = non-saturating binding

Row | binding result | Binder
7 | binds | SRP2193-A01 (antibody, IgG1, V domains shown, His/FLAG-tagged IgG1, cell-free) VH: EVQLVESGGGLVQPGGSLRLSCAASGFNINDHYIHWVRQAPGKGLEWVGAIDPTSGSTVFADSVKGRFTISADTSKNTAYLQMNSLRAEDTAVYYCARSRWFRVLWSYVFDYWGQGTLVTVSS VL: not shown
8 | binds | SRP2193-A09 (antibody, IgG1, V domains shown, His/FLAG-tagged IgG1, cell-free; also called Antibody 94) VH: EVQLVESGGGLVQPGGSLRLSCAASGFNIGKHHIHWVRQAPGKGLEWVGVIDPKGGSTVYADSVKGRFTISADTSKNTAYLQMNSLRAEDTAVYYCARSRWSRVLWSYVFDYWGQGTLVTVSS VL: not shown
9 | binds | SRP2193-A03 (antibody, IgG1, V domains shown, His/FLAG-tagged IgG1, cell-free) VH: EVQLVESGGGLVQPGGSLRLSCAASGFNIANYHIHWVRQAPGKGLEWVGAIDPKSGSTVHADSVKGRFTISADTSKNTAYLQMNSLRAEDTAVYYCARSRWSRVLWTYVFDYWGQGTLVTVSS VL: not shown
10 | binds | SRP2193-A11 (antibody, IgG1, V domains shown, His/FLAG-tagged IgG1, cell-free; also called Antibody 110) VH: EVQLVESGGGLVQPGGSLRLSCAASGFNIDAYYIHWVRQAPGKGLEWVGAIDPKSGSTVYADSVKGRFTTSADTSKNTAYLQMNSLRAEDTAVYYCARSRWFRVLWSYVFDYWGQGTLVTVSS VL: not shown
11 | binds | SRP2193-A04 (antibody, IgG1, V domains shown, His/FLAG-tagged IgG1, cell-free) VH: EVQLVESGGGLVQPGGSLRLSCAASGFNIISYYIHWVRQAPGKGLEWVGAIDPNSGSTLLADSVKGRFTISADTSKNTAYLQMNSLRAEDTAVYYCARSRWFRVLWSYVYDYWGQGTLVTVSS VL: not shown
12 | binds | SRP2193-A07 (antibody, IgG1, V domains shown, His/FLAG-tagged IgG1, cell-free; also called Antibody 97) VH: EVQLVESGGGLVQPGGSLRLSCAASGFNINASDIHWVRQAPGKGLGWVGAIDPNTGTTNYADSVKGRFTISADTSKNTAYLQMNSLRAEDTAVYYCARSRWFRVLWSYVFDYWGQGTLVTVSS VL: not shown
13 | binds | SRP2193-A06 (antibody, IgG1, V domains shown, His/FLAG-tagged IgG1, cell-free; also called Antibody 85) VH: EVQLVESGGGLVQPGGSLRLSCAASGFNINAYYIHWVRQAPGKGLEWVDAIDPDSGSTHNADSVKGRFTISADTSKNTAYLQMNSLRAEDTAVYYCARSRWFRVLWSYIFDYWGQGTLVTVSS VL: not shown
14 | binds | SRP2193-A05 (antibody, IgG1, V domains shown, His/FLAG-tagged IgG1, cell-free; also called Antibody 116) VH: EVQLVESGGGLVQPGGSLRLSCAASGFNIKGYYIHWVRQAPGKGLEWVSVIDPNSGSTIFADSVKGRFTISADTSKNTAYLQMNSLRAEDTAVYYCARSRWFRVLWSYVLDYWGQGTLVTVSS VL: not shown
15 | binds | SRP2193-A10 (antibody, IgG1, V domains shown, His/FLAG-tagged IgG1, cell-free; also called Antibody 95) VH: EVQLVESGGGLVQPGGSLRLSCAASGFNIGDYYIHWVRQAPGKGLEWVGAIDPKSGYTVYADSVKGRFTISADTSKNTAYLQMNSLRAEDTAVYYCARSRWFRVLWSYVFDYWGQGTLVTVSS VL: not shown
16 | binds | SRP2193-A08 (antibody, IgG1, V domains shown, His/FLAG-tagged IgG1, cell-free; also called Antibody 112) VH: EVQLVESGGGLVQPGGSLRLSCAASGFNIIDSYIHWVRQAPGKGLEWVGAIDPNAGSTVYADSVRGRFTISADTSKNTAYIQMNSLRAEDTAVYYCARSRWFRVLWSYVFDYWGQGTLVTVSS VL: not shown
17 | binds | SRP2193-A02 (antibody, IgG1, V domains shown, His/FLAG-tagged IgG1, cell-free; also called Antibody 83) VH: EVQLVESGGGLVQPGGSLRLSCAASGFNIHASYIHWVRQAPGKGLEWVGAIDPKSGSTYYADSVKGRFTISADTSKNTAYLQMNSLRAEDTAVYYCARSRWLRVLWSYIFDYWGQGTLVTVSS VL: not shown

molecular target: T3, human ROR1 Frizzled domain (Fz, residues 165-305) with C-terminal HIS6 tag (human, UniProt Q01973 165-305); assay: SPR (Biacore T200), IgG captured by anti-human Fc, ROR1 Fz as analyte, 1:1 Langmuir fit
T3 construct: Made in HEK293 cells and purified (Acro Biosystems); also called ROR1 Fz; hROR1-Fz
Procedure: as §1

Row | Kd [nM] | koff [s⁻¹] | kon [M⁻¹ s⁻¹] | Binder
18 | 9.59 | 0.029 | 3.02e+06 | 1944-A07 HC with Trastuzumab LC (antibody, IgG1, V domains shown, Screening constructs are described as His- and FLAG-tagged IgG1; also called SRP1944-A07) VH: EVQLVESGGGLVQPGGSLRLSCAASGFNITGYYIHWVRQAPGKGLEWVGYISPNSGSTYYADSVKGRFTISADTSKNTAYLQMNSLRAEDTAVYYCARDSRRYVRPFDYWGQGTLVTVSS VL: not shown
19 | 64.1 | 0.119 | 1.85e+06 | 1944-A07 HC with hUCHT1-LC3 light chain (antibody, V domains shown, IgG with an anti-CD3 light chain) VH: EVQLVESGGGLVQPGGSLRLSCAASGFNITGYYIHWVRQAPGKGLEWVGYISPNSGSTYYADSVKGRFTISADTSKNTAYLQMNSLRAEDTAVYYCARDSRRYVRPFDYWGQGTLVTVSS VL: DIQMTQSPSTLSASVGDRVTITCRASQDIRNYLNWYQQKPGKAPKLLIYYTSRLHSGVPSRFSGSGSGTEYTLTISSLQPDDFATYYCQQGNTLPWTFGGGTKVEIK
20 | 6.35 | 0.00228 | 360000 | 1944-A07 HC with hSP34-LC3 light chain (antibody, V domains shown, IgG with an anti-CD3 light chain) VH: EVQLVESGGGLVQPGGSLRLSCAASGFNITGYYIHWVRQAPGKGLEWVGYISPNSGSTYYADSVKGRFTISADTSKNTAYLQMNSLRAEDTAVYYCARDSRRYVRPFDYWGQGTLVTVSS VL: QTVVTQEPSLTVSPGGTVTLTCGSSTGAVTSGYYPNWFQQKPGQAPRGLIGGTKFLAPGTPARFSGSLLGGKAALTLSGVQPEDEAEYYCALWYSNRWVFGGGTQLTVTG
